Source: publication PMC5433351

How the values were obtained:
Type in all cases: biochemical, Metallosphaera sedula
[1] = substrate: O=CCCC(=O)O; assay: purified protein; details: NADPH 0.5 mM, MgCl2 5 mM, DTT 5 mM, pH 6.5, 65°C
[2] = substrate: CC(C)(COP(=O)(O)OP(=O)(O)OC[C@H]1O[C@@H](n2cnc3c(N)ncnc32)[C@H](O)[C@@H]1OP(=O)(O)O)[C@@H](O)C(=O)NCCC(=O)NCCSC(=O)CCC(=O)O; assay: NADPH consumption, spectrophotometric; details: NADPH 0.5 mM, MgCl2 5 mM, DTT 4 mM, pH 6.5, 65°C
[3] = substrate: NC(=O)C1=CN([C@@H]2O[C@H](COP(=O)(O)OP(=O)(O)OC[C@H]3O[C@@H](n4cnc5c(N)ncnc54)[C@H](OP(=O)(O)O)[C@@H]3O)[C@@H](O)[C@H]2O)C=CC1; assay: NADPH consumption, spectrophotometric; details: succinyl-CoA as substrate, pH 6.5, 65°C, varied: cofactor

Protein	Km [1]	Vmax [1]	kcat/Km [1]	Km [2]	Vmax [2]	kcat/Km [2]	Km [3]	Vmax [3]	kcat/Km [3]
SSR, succinic semialdehyde reductase (Metallosphaera sedula DSM 5348) (protein) MKAAVLHTYKEPLSIEDVNISQPKAGEVKIKVKATGLCHSDVNVFEGKTPVPPPVVAGHEISGIVEEVGPGVTRVKPGDRVISAFIHPCGKCGNCVAGKENLCETFSQVRLKGVMPDGTSRLSKDGKEIRTFLGGGFAEYAIVGENALTRVPEDMDLEKVAVLGCAGLTGYGAISSSKIEPGDTVAVIGVGGVGLSTIQLLRASGAGRIIAVGTKKWKLDRAMELGATDVVNSKEIDPVKAIKEITGGGPQVVIEAGGNEDTIHMALDSVRIGGKVVLVGLPPATAMIPIRVASIVRGGIEVVGNYGGRPRVDMPKLLELVRQGRYDPSRLVTGRFRLEEINEAVKMLEEGEAIRSLIIP	27 µM	683 µmol/min/mg	1.6e+07 M⁻¹ s⁻¹	–	–	–	–	–	–
MCR, malonyl-CoA/succinyl-CoA reductase (Metallosphaera sedula DSM 5348) (protein) MRRTLKAAILGATGLVGIEYVRMLADHPYIKPTYLAGKGSVGKPYGEIVRWQTVGNVPKEVANQEVKPTDPKLMDDVDIIFSPLPQGAAGPVEEQFAKLGFNVISNSPDHRFDMDVPMIIPEVNPHTVTLIDEQRKRRDWKGFIVTTPLCTAQGAAIPLTPIYQNFKMSGVMITTMQSLSGAGYPGIASLDIVDNALPLGDGYDAKTVKEITRILSEVKRNVQEPGVNEITLDATTHRIATIHGHYEVAYVTFKEDTDVRKVMESMESFKGEPQDLKLPTAPEKPIIVTTQDARPQVFFDRWAGNPPGMSVVVGRLKQVNPRTIRFVSLIHNTVRGAAGGGVLTAELLVEKGYIDKR	–	–	–	191 µM	15.9 µmol/min/mg	54500 M⁻¹ s⁻¹	79.2 µM	13.1 µmol/min/mg	109000 M⁻¹ s⁻¹
